Assays:
[1] = molecular target: T1, GFRα4 (Retrogenix library, on HEK293 cells) (human, UniProt Q9GZZ7 21-278); test: Retrogenix cell microarray on HEK293 cells
T1 construct: whole, on cells
T1 sequence (looked up): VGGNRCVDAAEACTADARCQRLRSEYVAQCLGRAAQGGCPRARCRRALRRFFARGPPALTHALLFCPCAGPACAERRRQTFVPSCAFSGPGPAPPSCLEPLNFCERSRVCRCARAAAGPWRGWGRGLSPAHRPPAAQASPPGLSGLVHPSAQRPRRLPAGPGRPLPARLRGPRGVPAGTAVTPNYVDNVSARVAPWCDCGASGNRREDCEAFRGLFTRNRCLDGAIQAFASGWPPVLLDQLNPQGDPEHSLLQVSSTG
Description: (§1) In parallel, two studies were performed at Retrogenix Ltd (Whaley Bridge, High Peak, Derbyshire, UK) using Retrogenix' Cell Microarray technology to screen for binding partners for the Fc-GDF15 fusion molecule. Two studies were performed to screen Retrogenix's plasma membrane protein library, first on 3500 proteins and second on an additional 993 proteins, with total number of proteins screened being 4493. A background screen was performed prior to the primary screen to detect the background level of binding of the test ligand Fc-GDF15 at 2, 5, and 20 ug/ml with blank slides coated with live HEK293 cells and detected by using an AlexaFluor647 anti-Fc antibody. In the primary screen, vectors encoding each full-length human plasma membrane protein in the library were arrayed in duplicates on Retrogenix's cell microarray slides (referred to as ‘slide-set’). Three replicate slide-set were used in the primary screen. Control expression vector (pIRES-hEGFR-IRES-ZsGreen1) was spotted in quadruplicate on every slide to ensure that a minimal threshold of transfection efficiency had been achieved or exceeded on every slide. HEK293 cells were used for reverse transfection in live conditions. The test ligand Fc-GDF15 was added at the concentration of 20 ug/ml to each slide set. After the addition of test ligand, cell fixation was performed and the AlexaFluor647 anti-Fc antibody was used for binding detection. Fluorescent images were analyzed using ImageQuant software (GE) and a protein ‘hit’ is defined as a duplicate spot showing a raised signal compared to background levels by visual inspection using the images gridded on the ImageQuant software. Hits identified in the primary screen were tested in a confirmation screen, where all vectors encoding the hits in at least one of the three replicate primary screening slide-sets were arrayed on new slides. Confirmation screening was performed similar to the primary screening, with the addition of control samples for binding Fc. Binding of cells overexpressing CD86 to human CTLA4 fused to human Fc, served as a positive control, and binding to Fc alone served as a negative control.

[2] = molecular target: T2, GFRα1 (Retrogenix library, on HEK293 cells) (human, UniProt P56159 25-429); test: Retrogenix cell microarray on HEK293 cells
T2 construct: whole, on cells
T2 sequence (looked up): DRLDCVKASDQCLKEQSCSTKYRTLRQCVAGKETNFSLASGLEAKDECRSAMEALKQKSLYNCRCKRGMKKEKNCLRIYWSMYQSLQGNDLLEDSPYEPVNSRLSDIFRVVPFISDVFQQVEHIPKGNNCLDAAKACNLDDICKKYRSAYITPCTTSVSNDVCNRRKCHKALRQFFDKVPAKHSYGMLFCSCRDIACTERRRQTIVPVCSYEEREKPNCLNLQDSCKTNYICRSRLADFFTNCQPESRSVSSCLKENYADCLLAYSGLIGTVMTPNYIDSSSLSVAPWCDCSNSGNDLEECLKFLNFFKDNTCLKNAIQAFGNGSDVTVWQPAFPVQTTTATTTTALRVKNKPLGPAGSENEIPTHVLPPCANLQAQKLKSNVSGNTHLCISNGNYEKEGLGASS
Description: as §1

[3] = molecular target: T3, GFRα2 (Retrogenix library, on HEK293 cells) (human, UniProt O00451 22-444); test: Retrogenix cell microarray on HEK293 cells
T3 construct: whole, on cells
T3 sequence (looked up): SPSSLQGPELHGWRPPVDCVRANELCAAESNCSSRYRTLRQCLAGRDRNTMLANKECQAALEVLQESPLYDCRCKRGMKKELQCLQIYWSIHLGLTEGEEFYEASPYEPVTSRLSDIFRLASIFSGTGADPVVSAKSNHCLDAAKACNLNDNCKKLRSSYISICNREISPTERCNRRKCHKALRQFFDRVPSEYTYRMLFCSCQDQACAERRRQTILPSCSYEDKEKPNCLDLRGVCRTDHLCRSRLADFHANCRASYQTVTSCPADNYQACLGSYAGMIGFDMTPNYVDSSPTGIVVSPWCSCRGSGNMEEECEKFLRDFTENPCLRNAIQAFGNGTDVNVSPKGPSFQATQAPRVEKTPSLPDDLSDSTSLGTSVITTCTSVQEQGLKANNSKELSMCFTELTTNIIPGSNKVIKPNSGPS
Description: as §1

[4] = molecular target: T4, GFRα3 (Retrogenix library, on HEK293 cells) (human, UniProt O60609 32-374); test: Retrogenix cell microarray on HEK293 cells
T4 construct: whole, on cells
T4 sequence (looked up): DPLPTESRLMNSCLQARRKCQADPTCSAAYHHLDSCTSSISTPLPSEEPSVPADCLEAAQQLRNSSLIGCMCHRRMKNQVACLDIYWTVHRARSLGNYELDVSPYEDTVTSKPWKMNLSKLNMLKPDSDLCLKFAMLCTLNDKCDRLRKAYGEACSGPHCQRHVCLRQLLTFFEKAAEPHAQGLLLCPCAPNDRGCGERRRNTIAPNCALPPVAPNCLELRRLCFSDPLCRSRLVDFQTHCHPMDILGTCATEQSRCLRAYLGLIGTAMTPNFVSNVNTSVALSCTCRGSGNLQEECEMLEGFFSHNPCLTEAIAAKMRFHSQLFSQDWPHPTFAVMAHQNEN
Description: as §1

[5] = molecular target: T5, N-terminally flag tagged full-length GFRAL on transiently transfected HEK293F cells (Homo sapiens (Human), UniProt Q6UXV0 19-394); test: FACS on GFRAL-expressing HEK293F cells, dose response
T5 construct: also called GFRAL-overexpressing HEK293F cells; GFRAL-expressing cells
T5 sequence: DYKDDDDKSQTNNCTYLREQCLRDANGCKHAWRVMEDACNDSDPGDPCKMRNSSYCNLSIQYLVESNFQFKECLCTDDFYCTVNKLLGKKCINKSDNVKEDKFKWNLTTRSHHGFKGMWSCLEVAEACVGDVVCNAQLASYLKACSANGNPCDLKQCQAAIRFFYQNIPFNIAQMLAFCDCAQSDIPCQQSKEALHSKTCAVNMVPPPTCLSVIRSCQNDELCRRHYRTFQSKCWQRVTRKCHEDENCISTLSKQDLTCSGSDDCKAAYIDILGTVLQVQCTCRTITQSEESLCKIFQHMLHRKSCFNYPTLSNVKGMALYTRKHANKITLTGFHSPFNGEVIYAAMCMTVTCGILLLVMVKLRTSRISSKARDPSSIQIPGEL

B1: heterodimeric Fc-GDF15 fusion molecule (Fc fusion)
chain 1: CPPCPAPEAAGGPSVFLFPPKPKDTLMISRTPEVTCVVVDVSQEDPEVQFNWYVDGVEVHNAKTKPREEQFNSTYRVVSVLTVLHQDWLNGKEYKCKVSNKGLPSSIEKTISKAKGQPREPQVYTLPPSQEEMTKNQVSLSCAVKGFYPSDIAVEWESNGQPENNYKTTPPVLDSDGSFFLVSRLTVDKSRWQEGNVFSCSVMHEALHNHYTQKSLSLSLGKGSGGGARNGDHCPLGPGRCCRLHTVRASLEDLGWADWVLSPREVQVTMCIGACPSQFRAANMHAQIKTSLHRLKPDTVPAPCCVPASYNPMVLIQKTDTGVSLQTYDDLLAKDCHCI
chain 2: CPPCPAPEAAGGPSVFLFPPKPKDTLMISRTPEVTCVVVDVSQEDPEVQFNWYVDGVEVHNAKTKPREEQFNSTYRVVSVLTVLHQDWLNGKEYKCKVSNKGLPSSIEKTISKAKGQPREPQVYTLPPSQEEMTKNQVSLWCLVKGFYPSDIAVEWESNGQPENNYKTTPPVLDSDGSFFLYSRLTVDKSRWQEGNVFSCSVMHEALHNHYTQKSLSLSLGK
notes: also called Fc-GDF15 ligand
B1: no binding (tested: 20 ug/ml) [1]; no binding (tested: 20 ug/ml) [2]; no binding (tested: 20 ug/ml) [3]. The binding result [4] was “no binding (tested: 20 ug/ml)” and the EC50 [5] was 0.258 nM.

Reference: patent publication US20190234935A1 (Janssen / Centocor, published 2019)
